# Data published in patent US20230049732A1 (UNIVERSITY OF LOUISVILLE RESEARCH FOUNDATION, published 2023).
# T1: HPV16 VLPs (human papillomavirus type 16, UniProt P03101 1-505)
# T1 construct: Specificity control; also called human papillomavirus VLPs
# T1 sequence: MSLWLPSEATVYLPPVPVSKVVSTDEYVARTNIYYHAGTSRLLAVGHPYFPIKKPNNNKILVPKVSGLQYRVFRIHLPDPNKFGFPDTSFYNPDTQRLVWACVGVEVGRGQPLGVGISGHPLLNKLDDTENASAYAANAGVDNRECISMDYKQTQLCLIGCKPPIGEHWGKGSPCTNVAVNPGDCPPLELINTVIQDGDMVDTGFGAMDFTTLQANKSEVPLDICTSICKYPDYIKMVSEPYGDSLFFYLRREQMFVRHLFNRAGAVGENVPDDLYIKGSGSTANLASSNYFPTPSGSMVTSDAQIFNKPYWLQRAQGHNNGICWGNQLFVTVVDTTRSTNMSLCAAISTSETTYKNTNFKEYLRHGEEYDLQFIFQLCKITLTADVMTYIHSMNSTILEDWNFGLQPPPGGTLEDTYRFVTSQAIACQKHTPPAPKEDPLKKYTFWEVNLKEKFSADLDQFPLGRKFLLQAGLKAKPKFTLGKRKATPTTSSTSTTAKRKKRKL
# T2: QQW401TDQ-VLPs of B19V (parvovirus B19 genotype 1 (mutated), UniProt P07299 228-781)
# T2 construct: also called construct B
# T2 chain: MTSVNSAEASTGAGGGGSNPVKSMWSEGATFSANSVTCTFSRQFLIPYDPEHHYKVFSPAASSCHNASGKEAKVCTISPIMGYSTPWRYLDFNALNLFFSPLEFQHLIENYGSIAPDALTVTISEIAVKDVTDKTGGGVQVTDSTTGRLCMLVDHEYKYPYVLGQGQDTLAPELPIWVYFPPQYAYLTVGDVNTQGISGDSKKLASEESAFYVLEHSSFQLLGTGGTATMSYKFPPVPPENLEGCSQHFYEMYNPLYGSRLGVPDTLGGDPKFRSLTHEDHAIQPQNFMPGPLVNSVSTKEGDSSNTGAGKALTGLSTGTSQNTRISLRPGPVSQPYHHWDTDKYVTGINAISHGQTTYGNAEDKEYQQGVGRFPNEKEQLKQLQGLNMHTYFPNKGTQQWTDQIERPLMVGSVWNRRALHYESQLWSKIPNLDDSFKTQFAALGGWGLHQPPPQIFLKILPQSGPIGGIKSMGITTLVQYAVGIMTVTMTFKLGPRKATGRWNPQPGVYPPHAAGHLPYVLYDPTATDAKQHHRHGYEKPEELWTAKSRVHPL
# T3: F401-VLPs of parvovirus B19 (parvovirus B19 genotype 1 (mutated), UniProt P07299 228-781)
# T3 construct: also called F401-B19V; construct A
# T3 chain: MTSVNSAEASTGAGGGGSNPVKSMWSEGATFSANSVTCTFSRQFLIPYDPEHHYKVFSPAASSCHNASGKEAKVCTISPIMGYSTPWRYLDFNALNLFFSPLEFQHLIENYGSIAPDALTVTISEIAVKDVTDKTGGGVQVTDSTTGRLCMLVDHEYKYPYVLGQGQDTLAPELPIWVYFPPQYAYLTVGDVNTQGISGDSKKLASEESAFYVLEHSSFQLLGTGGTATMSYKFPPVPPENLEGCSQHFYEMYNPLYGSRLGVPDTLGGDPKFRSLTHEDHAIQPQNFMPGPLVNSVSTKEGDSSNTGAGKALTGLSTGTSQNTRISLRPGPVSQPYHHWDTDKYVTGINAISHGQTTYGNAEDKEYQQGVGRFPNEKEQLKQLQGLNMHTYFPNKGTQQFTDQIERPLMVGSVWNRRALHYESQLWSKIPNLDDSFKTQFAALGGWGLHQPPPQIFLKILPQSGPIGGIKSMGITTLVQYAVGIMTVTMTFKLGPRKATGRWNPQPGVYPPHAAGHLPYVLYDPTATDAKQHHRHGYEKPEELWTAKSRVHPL
# T4: KEYA368A369-VLPs of B19V (parvovirus B19 genotype 1 (mutated), UniProt P07299 228-781)
# T4 construct: also called construct D
# T4 chain: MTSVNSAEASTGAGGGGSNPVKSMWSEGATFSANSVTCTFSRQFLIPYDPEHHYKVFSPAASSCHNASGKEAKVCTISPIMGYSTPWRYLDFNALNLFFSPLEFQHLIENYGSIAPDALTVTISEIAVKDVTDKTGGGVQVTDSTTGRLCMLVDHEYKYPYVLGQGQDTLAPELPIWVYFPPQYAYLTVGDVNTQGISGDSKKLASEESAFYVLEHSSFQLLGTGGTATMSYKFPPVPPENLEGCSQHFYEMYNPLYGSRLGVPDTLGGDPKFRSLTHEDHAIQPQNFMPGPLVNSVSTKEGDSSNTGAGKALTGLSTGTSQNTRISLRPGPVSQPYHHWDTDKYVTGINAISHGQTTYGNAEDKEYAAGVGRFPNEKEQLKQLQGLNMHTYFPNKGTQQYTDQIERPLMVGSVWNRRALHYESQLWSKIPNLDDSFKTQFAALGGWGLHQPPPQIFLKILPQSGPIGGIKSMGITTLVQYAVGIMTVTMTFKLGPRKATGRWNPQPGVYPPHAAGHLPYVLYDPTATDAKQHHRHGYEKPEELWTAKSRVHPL
# Experiments:
# HPV16 VLPs [1] = target: T1, HPV16 VLPs; experiment: ELISA, VLPs coated
# QQW401TDQ-VLPs of B19V = target: T2, QQW401TDQ-VLPs of B19V; experiment: ELISA, intact VLPs coated, hybridoma supernatant
# [2] = target: T3, F401-VLPs of parvovirus B19; experiment: ELISA, intact VLPs coated, hybridoma supernatant
# HPV16 VLPs [3] = target: T1, HPV16 VLPs; experiment: ELISA, intact VLPs coated, hybridoma supernatant
# KEYA368A369-VLPs of B19V = target: T4, KEYA368A369-VLPs of B19V; experiment: ELISA, intact VLPs coated, hybridoma supernatant
Binder,binding result (HPV16 VLPs [1]),ELISA absorbance (405 nm) (QQW401TDQ-VLPs of B19V),ELISA absorbance (405 nm) [2],ELISA absorbance (405 nm) (HPV16 VLPs [3]),ELISA absorbance (405 nm) (KEYA368A369-VLPs of B19V)
"MAb #91 (antibody, V domains shown, Murine hybridoma antibody, supernatant; also called antibody 91) VH: EVQLQQSGPELVKPGASVKISCKASGYSFTDYFMNWVKQSHGKSLEWIGRINPYNGDSFYNQNFRGSVTLTVDKSSGTAHMELLSLTSEDSTVYYCGAYRYDGYAMDYWGQGTSVTVSS VL: DVVMTQTPLSLPVSLGDQASISCRSSQSLVHSDGNTYLHWYLQKPGQSPKLLIYKVSNRFSGVPDRFSGSGSGTDFTLKISRVEAEDLGVYFCSQSTHVPFTFGSGTKLEIK",no binding,1.64,3.01,0.005,2.59
"MAb #25 (antibody, V domains shown, Murine hybridoma antibody, supernatant; also called antibody 25) VH: QVQLQQPGAELVRPGASVKLSCKASGYTFTNYWMHWVKQRPEQGLEWIGRIDPYDSETHYNQKFKDKAILTVDTSSNTAYMQLSSLTSEDSAVYYCTSYYYGSNYVWHFDVWGAGTTVTVSS VL: not shown",no binding,1.53,3.82,0.009,2.79
